Data from publication PMC12718255, “Quantitative assessment of porin-mediated solute transport in biomimetic membranes” (Applied Microbiology and Biotechnology, 2025).

Substrate: Oc1ccc(Cc2nc3c(Cc4ccccc4)nc(-c4ccc(O)cc4)cn3c2O)cc1
Assay: luminescence, extrapolated peak intensity, Hill fit
Assay type: biochemical, Gaussia princeps (in: crustaceans)
Details: free GLuc 0.05 µM, PBS, O2 as co-substrate, 0.1-30 µM CLZ

B1: Gaussia luciferase (GLuc) (Gaussia princeps (in: crustaceans); M127L/M60L) (protein)
chain: KPTENNEDFNIVAVASNFATTDLDADRGKLPGKKLPLEVLKELEANARKAGCTRGCLICLSHIKCTPKMKKFIPGRCHTYEGDKESAQGGIGEAIVDIPEIPGFKDLEPLEQFIAQVDLCVDCTTGCLKGLANVQCSDLLKKWLPQRCATFASKIQGQVDKIKGAGGD
With B1 the K0.5 was 9.8 (95% CI [6.2 µM, 43.1 µM]) µM.
